Series [1] has as its target purified H4 protein (Example 3), P62805.
Series [2] concerns the target purified histone H3 (Example 2), P68431.
The target of series [3] is T1, biotinylated H4-derived unphosphorylated peptide TVTAMDVVYALKRQGRT
T1 chain: TVTAMDVVYALKRQGRT

Residue numbers refer to the chain shown, from its start. Names may count otherwise.

B1: purified constitutively active E346K-Ack1 (HA-tagged) (protein)
chain: MQPEEGTGWLLELLSEVQLQQYFLRLRDDLNVTRLSHFEYVKNEDLEKIGMGRPGQRRLWEAVKRRKALCKRKSWMSKVFSGKRLEAEFPPHHSQSTFRKTSPAPGGPAGEGPLQSLTCLIGEKDLRLLEKLGDGSFGVVRRGEWDAPSGKTVSVAVKCLKPDVLSQPEAMDDFIREVNAMHSLDHRNLIRLYGVVLTPPMKMVTELAPLGSLLDRLRKHQGHFLLGTLSRYAVQVAEGMGYLESKRFIHRDLAARNLLLATRDLVKIGDFGLMRALPQNDDHYVMQEHRKVPFAWCAPESLKTRTFSHASDTWMFGVTLWEMFTYGQEPWIGLNGSQILHKIDKKGERLPRPEDCPQDIYNVMVQCWAHKPEDRPTFVALRDFLLEAQPTDMRALQDFEEPDKLHIQMNDVITVIEGRAENYWWRGQNTRTLCVGPFPRNVVTSVAGLSAQDISQPLQNSFIHTGHGDSDPRHCWGFPDRIDELYLGNPMDPPDLLSVELSTSRPPQHLGGVKKPTYDPVSEDQDPLSSDFKRLGLRKPGLPRGLWLAKPSARVPGTKASRGSGAEVTLIDFGEEPVVPALRPCAPSLAQLAMDACSLLDETPPQSPTRALPRPLHPTPVVDWDARPLPPPPAYDDVAQDEDDFEICSINSTLVGAGVPAGPSQGQTNYAFVPEQARPPPPLEDNLFLPPQGGGKPPSSAQTAEIFQALQQECMRQLQAPAGSPAPSPSPGGDDKPQVPPRVPIPPRPTRPHVQLSPAPPGEEETSQWPGPASPPRVPPREPLSPQGSRTPSPLVPPGSSPLPPRLSSSPGKTMPTTQSFASDPKYATPQVIQAPGPRAGPCILPIVRDGKKVSSTHYYLLPERPSYLERYQRFLREAQSPEEPTPLPVPLLLPPPSTPAPAAPTATVRPMPQAALDPKANFSTNNSNPGARPPPPRATARLPQRGCPGDGPEAGRPADKIQMAMVHGVTTEECQAALQCHGWSVQRAAQYLKVEQLFGLGLRPRGECHKVLEMFDWNLEQAGCHLLGSWGPAHHKR
In the case of B1, in series [1], the “in vitro kinase assay, immunoblot with pTyr51-H4 antibody” value was “When purified E346K-Ack1 and H4 were incubated, H4 was Tyr51-phosphorylated, however, Ack1 inhibitor AIM-100 abrogated H4 pTyr51-phosphorylation (FIG. 26B)”.

B2: purified Ack1 (Examples 2 and 5) (protein)
chain: B1 chain with K346E
B2: in series [2], the “in vitro kinase reaction, immunoblot with pTyr99-H3 antibody” value is on record as “Ack1 directly phosphorylates histone H3 at Tyr99 (FIG. 23)”. For the same protein, in series [3], the “in vitro kinase assay on immobilized peptide, ELISA with pY88-H4 antibodies” value is “Incubation of H4 peptide with WEE1 and Ack1 protein resulted in robust H4 Tyr88-phosphorylation”.
